For experiment [1], the target named is T1, recombinant human interleukin 12 (p40/p35 heterodimer) (human, UniProt P29460 23-328; P29459 23-219).
T1 chain 1: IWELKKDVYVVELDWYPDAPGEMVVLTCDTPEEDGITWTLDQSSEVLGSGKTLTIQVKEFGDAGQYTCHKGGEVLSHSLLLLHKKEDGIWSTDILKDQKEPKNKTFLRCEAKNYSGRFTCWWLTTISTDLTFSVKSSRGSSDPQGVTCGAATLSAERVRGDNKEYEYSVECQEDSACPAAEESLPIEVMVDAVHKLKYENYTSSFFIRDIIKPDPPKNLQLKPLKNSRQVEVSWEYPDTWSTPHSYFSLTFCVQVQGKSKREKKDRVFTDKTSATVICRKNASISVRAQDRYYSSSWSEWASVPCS
T1 chain 2: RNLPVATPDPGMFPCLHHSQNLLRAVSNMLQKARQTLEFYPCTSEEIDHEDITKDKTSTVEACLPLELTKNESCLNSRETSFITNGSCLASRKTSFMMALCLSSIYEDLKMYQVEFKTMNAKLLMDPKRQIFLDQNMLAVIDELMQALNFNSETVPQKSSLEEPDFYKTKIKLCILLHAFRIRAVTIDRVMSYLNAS
In words: BIAcore.

For experiment [2], the target named is T1, recombinant human interleukin 12 …. In words: BIAcore. Background: SPR reads the build-up and loss of mass on a sensor chip optically.

Read-outs that look alike come from different tables or passages of the source.

By koff is commonly meant the first-order rate constant of dissociation. As for HHSHDN [Y61 H96 H], in experiment [1], the dissociation rate constant (koff) came out at 0.000237 s⁻¹.

For HGRHDN [Y61 H97 R], the koff in experiment [1] came to 0.00224 s⁻¹. With FTFSSYMMH [Y61 H33 M], the koff in experiment [2] stood at 0.000215 s⁻¹. Take HGHHDN [Y61 H97 H]: the koff in experiment [1] worked out at 0.00191 s⁻¹. With QGSHDN [Y61 H95 Q], the koff in experiment [1] came to 0.000859 s⁻¹. As to FTFSSSGMH [Y61 H32 S], the koff in experiment [2] worked out at 0.00158 s⁻¹.

Regarding TGSHDN [Y61 H95 T], the koff in experiment [1] was 0.00202 s⁻¹. FTFSHYGMH [Y61 H31 H]: in experiment [2], the koff was determined as 0.000309 s⁻¹. Still for that read-out and setting: for FTFSAYGMH [Y61 H31 A] the value was 0.000205 s⁻¹. As to KGSHDN [Y61 H95 K], the koff in experiment [1] was determined as 0.00228 s⁻¹. In the case of FTFSTYGMH [Y61 H31 T], the dissociation rate constant (koff) in experiment [2] was found to be 0.000716 s⁻¹.

With HGSVDN [Y61 H98 V], the koff in experiment [1] was found to be 0.000293 s⁻¹. FTFSQYGMH [Y61 H31 Q]: in experiment [2], the off-rate (koff) turned out to be 0.000152 s⁻¹.

As for AGSHDN [Y61 H95 A], in experiment [1], the koff came out at 0.0015 s⁻¹. Consider LGSHDN [Y61 H95 L], for which, in experiment [1], the dissociation rate constant (koff) amounted to 0.00147 s⁻¹. On to FTFSCYGMH [Y61 H31 C], for which the koff in experiment [2] was found to be 0.00012 s⁻¹. HCSHDN [Y61 H96 C]: the koff in experiment [1] was determined as 0.000242 s⁻¹. Consider HGSTDN [Y61 H98 T], for which, in experiment [1], the koff was found to be 0.000227 s⁻¹.

In the case of HMSHDN [Y61 H96 M], the koff in experiment [1] amounted to 0.00204 s⁻¹. As for HGSFDN [Y61 H98 F], the dissociation rate constant (koff) in experiment [1] worked out at 0.000688 s⁻¹. As to FTFYSYGMH [Y61 H30 Y], the koff in experiment [2] was 0.000319 s⁻¹.

Regarding SGSHDN [Y61 H95 S], the koff in experiment [1] was determined as 0.00193 s⁻¹. For HISHDN [Y61 H96 I], the off-rate constant (koff) in experiment [1] was found to be 0.00208 s⁻¹. Regarding HGGHDN [Y61 H97 G], the koff in experiment [1] was found to be 0.00229 s⁻¹.

As for FTFSSYSMH [Y61 H33 S], the koff in experiment [2] stood at 0.000399 s⁻¹.

On to HGNHDN [Y61 H97 N], for which the koff in experiment [1] worked out at 0.00221 s⁻¹. Same read-out and setting: for HGFHDN [Y61 H97 F] the value was 0.0018 s⁻¹. Take FTFSSYIMH [Y61 H33 I]: the koff in experiment [2] turned out to be 0.0025 s⁻¹.

For the molecule HGPHDN [Y61 H97 P], the off-rate (koff) in experiment [1] came out at 0.003 s⁻¹.

As for FTFSSYYMH [Y61 H33 Y], the off-rate constant (koff) in experiment [2] amounted to 0.0025 s⁻¹. For the molecule FTFSSEGMH [Y61 H32 E], the koff in experiment [2] worked out at 0.00229 s⁻¹. Take FTFSSYCMH [Y61 H33 C]: the koff in experiment [2] is 0.00286 s⁻¹. FTFRSYGMH [Y61 H30 R]: the koff in experiment [2] was 0.000245 s⁻¹. Take HGSHYN [Y61 H101 Y]: in experiment [1], the koff was 0.00465 s⁻¹. With HLSHDN [Y61 H96 L], the koff in experiment [1] turned out to be 0.00261 s⁻¹.

Take FTFESYGMH [Y61 H30 E]: the koff in experiment [2] came to 0.000228 s⁻¹.

For HGSRDN [Y61 H98 R], the koff in experiment [1] was 0.00034 s⁻¹. On the same count and under the same terms, for FGSHDN [Y61 H95 F] the value was 0.00514 s⁻¹.

As for FTFSSAGMH [Y61 H32 A], in experiment [2], the koff came to 0.00166 s⁻¹.

Turning to HGSLDN [Y61 H98 L], the koff in experiment [1] turned out to be 0.000598 s⁻¹. For HGDHDN [Y61 H97 D], in experiment [1], the koff is 0.00202 s⁻¹. Regarding PGSHDN [Y61 H95 P], the koff in experiment [1] is 0.00471 s⁻¹. FTFSEYGMH [Y61 H31 E]: the koff in experiment [2] was 0.000219 s⁻¹.

As for HPSHDN [Y61 H96 P], in experiment [1], the koff came to 0.00129 s⁻¹.

On to FTFNSYGMH [Y61 H30 N], for which, in experiment [2], the dissociation rate constant (koff) was determined as 0.000301 s⁻¹.

Turning to HGSADN [Y61 H98 A], the koff in experiment [1] was determined as 0.000673 s⁻¹. HDSHDN [Y61 H96 D]: the dissociation rate constant (koff) in experiment [1] is 0.00224 s⁻¹.

On to FTFSSLGMH [Y61 H32 L], for which, in experiment [2], the koff is 0.00226 s⁻¹. As to HVSHDN [Y61 H96 V], the koff in experiment [1] amounted to 0.000382 s⁻¹. As for HTSHDN [Y61 H96 T], the koff in experiment [1] is 0.00186 s⁻¹.

Turning to HGSHSN [Y61 H101 S], the off-rate constant (koff) in experiment [1] was 0.000449 s⁻¹. As for HWSHDN [Y61 H96 W], the dissociation rate constant (koff) in experiment [1] is 0.00197 s⁻¹.

As for HGIHDN [Y61 H97 I], the koff in experiment [1] stood at 0.00208 s⁻¹.

HGAHDN [Y61 H97 A]: the koff in experiment [1] is 0.00143 s⁻¹. Consider FTFSSCGMH [Y61 H32 C], for which the koff in experiment [2] was 0.00383 s⁻¹. As for FTFSSYEMH [Y61 H33 E], the koff in experiment [2] came to 0.00189 s⁻¹. As to FTFSRYGMH [Y61 H31 R], the koff in experiment [2] was 0.000664 s⁻¹. Consider HRSHDN [Y61 H96 R], for which the koff in experiment [1] is 0.000962 s⁻¹. Take FTFSSYVMH [Y61 H33 V]: the koff in experiment [2] was 0.00191 s⁻¹.

Consider HGYHDN [Y61 H97 Y], for which the koff in experiment [1] worked out at 0.00273 s⁻¹. As for HGTHDN [Y61 H97 T], the koff in experiment [1] was determined as 0.000588 s⁻¹. In the case of HGSIDN [Y61 H98 I], the off-rate constant (koff) in experiment [1] came to 0.000343 s⁻¹. With FTFHSYGMH [Y61 H30 H], the koff in experiment [2] is 0.000296 s⁻¹. In the case of HGSHHN [Y61 H101 H], the koff in experiment [1] was determined as 0.00327 s⁻¹. Same read-out and setting: with HGSHRN [Y61 H101 R] the figure was 0.0011 s⁻¹. As to FTFSSVGMH [Y61 H32 V], the koff in experiment [2] is 0.00134 s⁻¹. For the molecule EGSHDN [Y61 H95 E], the koff in experiment [1] worked out at 0.00231 s⁻¹.
